Experimental findings from patent publication US20220356229A1 (published 2022) are described below.

The labels stand for the following.
B1: antibody 294 (antibody, V domains shown)
VH: EVQLVESGGGLVQPGGSLRLSCAASGFTVSSNYMNWVRQAPGKGLEWVSVIYSGGSTYYADSVKGRFTISRDNSKNTLYLQMNSLRAEDTAVYYCARDLGPSGMDVWGQGTTVTVSS
VL: DIQMTQSPSSVSASVGDRVTITCRASQGISSWLAWYQQKPGKAPKLLIYAASSLQSGVPSRFSGSGSGTDFTLTISSLQPEDFATYYCQQANSFPLFGGGTKVEIK
B2: antibody 265 (antibody, V domains shown)
VH: EVQLVQSGAEVKKPGATVKVSCKFSGDTFSHYYIHWVQQAPGKGLEWMGLVDPQDGESEYAQKFQGKVTITADTSIDTSYLEVTSLRFDDTAFYFCATRGMSGAFDRWGQGTLVTVSS
VL: DIVMTQSPDSLAVSLGERATINCKSSQSILSTSNNKNYLAWYQQKPGQPPKLLIYWASTRESGVPDRFSGGGSGTDFTLTISSLQAEDVAVYYCQQYYRTAYTTPIYTFGQGTKLEIK
B3: antibody 300 (antibody, V domains shown)
VH: QVQLVESGGGVVQPGRSLTLSCAASGFTFSSYAMHWVRQAPGKGLEWVALISYDGNNKYYADSVKGRFTFSRDNSKNTLYLQMNSLRAEDTAVYYCARTNSGSYRTAFDYWGQGTLVTVSS
VL: DIQMTQSPSTLSASVGDRVTITCRASQSISIWLAWYQQKPGKAPKLLIYKASSLESGVPSRFSGSGSGTEFTLTISSLQPDDFATYYCQQYNSLWTFGQGTKVEIK
B4: antibody 301 (antibody, V domains shown)
VH: QVQLVQSGAEVKKPGASVKVSCKVSGYTLTELSMHWVRQAPGKGLEWMGGFDPEDGETIYAQKFQGRVTMTEDTSTDTAYMELSSLRSEDTAVYYCATAFCGGDCYPPDALDIWGQGTMVTVSS
VL: DIQMTQSPSSVSASVGDRVTITCRASQGISSWLAWYQQKPGKAPKLLIYAASSLQSGVPSRFSGSGSGTDFTLTISSLQPEDFATYYCQQANSFPLTFGGGTKVEIK
B5: antibody 266 (antibody, V domains shown)
VH: QVQLVESGGGVVQPGRSLRLSCAASGFNLSNYAMHWVRQPSGKGLEWVSLISYDGSIKYYTDSVKGRFTVSGDNSKNTLFLQMNSLRPDDSALYYCVRGGVSGPNSFDMWGQGTTVTVSS
VL: DVVMTQSPLSLPVTLGQPASISCRSSQSLVYSDGNTYVNWFQQRPGQSPRRLIYQVSIRASGVPDRFSGSGSGTDFALKISRVEAEDVGVYYCMQGTHWPVTFGQGTKVEIK
B6: antibody 264 (antibody, V domains shown)
VH: QVHLVESGGGVVQPGRSLRLSCAASGFTLTSYAMHWVRQAPGKGLEWVALISYDGSVKKYAESVKGRITVSGDNSRNTLHLQINTLRADDTAVYYCVRGGVSGPNSFDLWGQGTMVTVSS
VL: B5 VL with V30E, I58N, A77T, K79Q, V90I
B7: antibody 303 (antibody, V domains shown)
VH: B5 VH with N31S, P40A, T61A, T78M, P88A, S106A, M109I
VL: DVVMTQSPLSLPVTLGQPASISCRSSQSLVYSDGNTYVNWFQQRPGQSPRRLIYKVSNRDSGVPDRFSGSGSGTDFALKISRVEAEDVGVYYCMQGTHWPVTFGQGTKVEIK
B8: antibody 263 (antibody, V domains shown)
VH: EVQLVQSGAEVKKPGATVKISCKVSGYTFTDYYMHWVQQAPGKGLEWMGLVDPEDGETIYAEKFQGRVTITADTSTDTAYMELSSLRSDDTAVYYCTTDLAFTIFGGRRGFDPWGQGTLVTVSS
VL: DIQLTQSPSFLSASVGDRVTITCRASQGISSYLAWYQQKPGKAPKLLIYAASTLQSGVPSRFSGSGSGTEFTLTISSLQPEDFATYYCQQLNSYDFGQGTRLEIK
B9: antibody 260 (antibody, V domains shown)
VH: EVQLVESGGGLVQPGRSLRLSCAASGFTFDYYAMHWVRQAPGKGLEWVSGISWNSGTIGYADSVKGRFTISRDNAKNSLYLQMNSLRAEDTALYYCAKDSRPSGRYYYGMDVWGQGTTVTVSS
VL: not shown
B10: antibody 276 (antibody, V domains shown)
VH: QVQLQESGPGLVKPSQTLSLTCTVSGDSISSGGYYWSWIRQHPGKGLEWIGYIYYSGSAYYNPSLKSRVTISLDTSKNQFSLKLSSVTAADTAVYYCARDSVAGFSIFDYWGQGTLVTVSS
VL: SSELTQDPAVSVALGQTVRITCQGDSLRSYYASWYQQKPGQAPVRVIYGKNNRPSGIPDRFSGSSSGNTASLTITGAQAEDEADYYCNSWDSSGNHVVFGGGTKLTVL
B11: antibody 273 (antibody, V domains shown)
VH: QVQLVQSGAEVKKPGASVKVSCKVSGYTLTELSMHWVRQAPGKGLEWMGGFDPEDGETIYAQKFQGRVTMTEDTSTDTAYMELSSLRSEDTAVYYCATAPGYYDSSAPQPINWFDPWGQGTLVTVSS
VL: QSALTQPASVSGSPGQSITISCTGTSSDVGSYNLVSWYQQHPGKAPKLMIYEVSKRPSGVSNRFSGSKSGNTASLTISGLQAEDEADYYCCSYAGSSTLVFGGGTKLTVL
B12: antibody 295 (antibody, V domains shown)
VH: QVQLQESGPGLVKPSQTLSLTCTVSGGSISSSDYYWSWIRQPPGKGLEWIGYIYYSGSTYYNPSLKSRVTISVDTSKNQFSLKLSSVTAADTAVYYCARVVGYCSSTSCYVDYWGQGTLVTVSS
VL: EIVLTQSPATLSLSPGERVTLSCRASQSVSSYLAWYQQKPGQAPRLLIYDASNRATGIPARFSGSGSGTDFTLTISSLEPEDFAVYYCQQRSNWPPGLTFGGGTKVEIK
B13: antibody 281 (antibody, V domains shown)
VH: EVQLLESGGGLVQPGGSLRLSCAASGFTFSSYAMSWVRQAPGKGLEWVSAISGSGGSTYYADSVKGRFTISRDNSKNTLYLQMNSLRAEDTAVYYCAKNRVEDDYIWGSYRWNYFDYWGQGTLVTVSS
VL: QSALTQPASVSGSPGQSITISCTGTSSDVGSYNLVSWYQQHPGKAPKLMIYEVSKRPSGVSNRFSGSKSGNTASLTISGLQAEDEADYYCCSYAGSSTHVVFGGGTKLTVL
B14: anti-SARS-CoV-2 antibody 385 (antibody, V domains shown)
VH: QVQLVESGGGVVQPGRSLRLSCAASGFTFSSYAIHWVRQAPGKGLEWVAVISYDGSNKYYADSVKGRFTISRDNSKNTLYLQMNSLRAEDTAVYYCARPRSGSYWGAFDIWGQGTMVTVSS
VL: QSVLTQPPSVSGAPGQRVTISCTGSSSNIGARYDVHWYQQLPGTAPKLLIYGNSNRPSGVPDRFSGSKSGTSASLAITGLQAEDEADYYCQSYDSSLRGVFGGGTKLTVL
B15: anti-SARS-CoV-2 antibody 392 (antibody, V domains shown)
VH: QVQLQESGPGLVKPSGTLSLTCAVSGGSISSSNWWSWVRQPPGKGLEWIGEIYHSGSTNYNPSLKSRVTISVDKSKNQFSLKLSSVTAADTAVYYCARGWRATLYGMDVWGQGTTVTVSS
VL: B11 VL with L99W
B16: anti-SARS-CoV-2 antibody 395 (antibody, V domains shown)
VH: QVQLVQSGSELKKPGASVKLSCQASGYTFSNHAMNWVRQAPGQGLEWMGWINTNTGNPTYAQGFTGRFVFSLDTSVGTAYLHISSLKAEDTAFYYCARASARPGVATNLDFWGQGTLVVVSS
VL: DIQMTQSPSSLSASVGDRVTITCRTSQNIDNYLNWYQQKPGKAPNLLIYAASRLHSGVPSRFSGSGSGTDFTLIISSLQPEDLATYYCQQSYSNPLTFGPGTKVDIR

Substitutions are numbered along the chain they refer to.

The target in the first test is SARS-CoV-2 Spike (S) protein, wild type, full length (SARS-CoV-2, UniProt P0DTC2 14-1208).
With B1, the “bead binding signal (fold over isotype)” value is 1230 fold over isotype. In the case of B2, the “bead binding signal (fold over isotype)” value came out at 1280 fold over isotype. In the case of B3, the “bead binding signal (fold over isotype)” value is 721 fold over isotype. For B4, the “bead binding signal (fold over isotype)” value worked out at 865 fold over isotype. Take B5: the “bead binding signal (fold over isotype)” value was 473 fold over isotype.

In the case of B6, the “bead binding signal (fold over isotype)” value came out at 598 fold over isotype. As to B7, the “bead binding signal (fold over isotype)” value stood at 341 fold over isotype. Same read-out and setting: under B8 stands 722 fold over isotype; under B9, 724 fold over isotype. Same read-out and setting: under B10 stands 748 fold over isotype. For the molecule B11, the “bead binding signal (fold over isotype)” value came out at 924 fold over isotype.

Turning to B12, the “bead binding signal (fold over isotype)” value worked out at 599 fold over isotype. Turning to B13, the “bead binding signal (fold over isotype)” value worked out at 570 fold over isotype.

Another test addresses SARS-CoV Spike protein (full length Spike, coupled to optically encoded beads) (SARS-CoV, UniProt P59594 14-1190).
For B14, the “median fluorescence, fold over isotype” value turned out to be 59.6 fold over isotype. For B15, the “median fluorescence, fold over isotype” value came out at 1.08 fold over isotype. B16: the “median fluorescence, fold over isotype” value is 1.16 fold over isotype.
